The term pEC50 denotes the negative decadic logarithm of the EC50, by convention in mol/L. High values mean a small EC50, low ones a large EC50.

pEC50: −log10 of the molar value.

Assay [1] deals with ribosome nascent chain complex bearing the 3A7L signal sequence, nascent chain of 85 residues, Cm-labeled (UniProt P0ADZ0). Nature of the assay: FRET or BRET.
The target is the same in assay [2]. Nature of the assay: other fluorescence titration.

In assay [1], “SRP-FtsY complex formed with mutant SRP19/21E (early complex with GDP, closed complex with GppNHp) (from UniProt P0AGD7;P10121)” displayed a fold weaker binding than wt SRP in the closed complex of 6 fold and a fold weaker binding than wt SRP in the early complex of over 300 fold.
On to “SecYEG translocon, cysteineless, solubilized in 0.02% DDM (from UniProt P0AGA2;P0AG96;P0AG99) (complex)”, for which, in assay [2], the pEC50 is 7.41.

Source of the values: PMC4050729.
